Data reported in US10676749.

Columns and labels:
Experiment in all cases: cell_activity
[1] = system: TALE-VP64 VEGF3-1 (synthetic); conditions: VEGF-A ELISA, 293 cells
[2] = system: TALE-VP64 VEGF3-2 (synthetic); conditions: VEGF-A ELISA, 293 cells
[3] = system: TALE-VP64 VEGF3-3 (synthetic); conditions: VEGF-A ELISA, 293 cells
[4] = system: TALE-VP64 VEGF3-4 (synthetic); conditions: VEGF-A ELISA, 293 cells
[5] = system: TALE-VP64 VEGF3-5 (synthetic); conditions: VEGF-A ELISA, 293 cells
[6] = system: TALE-VP64 VEGF3-6 (synthetic); conditions: VEGF-A ELISA, 293 cells
[7] = system: TALE-VP64 Ntf3-4 (synthetic); conditions: NTF3 qRT-PCR, 293 cells
[8] = system: TALE-VP64 VEGF9-1 (synthetic); conditions: VEGF-A ELISA, 293 cells
[9] = system: TALE-VP64 VEGF9-2 (synthetic); conditions: VEGF-A ELISA, 293 cells
[10] = system: TALE-VP64 VEGF9-3 (synthetic); conditions: VEGF-A ELISA, 293 cells
[11] = system: TALE-VP64 VEGF9-4 (synthetic); conditions: VEGF-A ELISA, 293 cells
[12] = system: TALE-VP64 VEGF9-5 (synthetic); conditions: VEGF-A ELISA, 293 cells
[13] = system: TALE-VP64 VEGF9-6 (synthetic); conditions: VEGF-A ELISA, 293 cells
[14] = system: TALE-VP64 VEGF8-1 (synthetic); conditions: VEGF-A ELISA, 293 cells
[15] = system: TALE-VP64 VEGF8-2 (synthetic); conditions: VEGF-A ELISA, 293 cells
[16] = system: TALE-VP64 VEGF8-3 (synthetic); conditions: VEGF-A ELISA, 293 cells
[17] = system: TALE-VP64 VEGF8-4 (synthetic); conditions: VEGF-A ELISA, 293 cells
[18] = system: TALE-VP64 VEGF8-5 (synthetic); conditions: VEGF-A ELISA, 293 cells
[19] = system: TALE-VP64 VEGF8-6 (synthetic); conditions: VEGF-A ELISA, 293 cells
[20] = system: TALE-VP64 VEGF6-1 (synthetic); conditions: VEGF-A ELISA, 293 cells
[21] = system: TALE-VP64 VEGF6-2 (synthetic); conditions: VEGF-A ELISA, 293 cells
[22] = system: TALE-VP64 VEGF6-3 (synthetic); conditions: VEGF-A ELISA, 293 cells
[23] = system: TALE-VP64 VEGF6-4 (synthetic); conditions: VEGF-A ELISA, 293 cells
[24] = system: TALE-VP64 VEGF6-5 (synthetic); conditions: VEGF-A ELISA, 293 cells
[25] = system: TALE-VP64 VEGF6-6 (synthetic); conditions: VEGF-A ELISA, 293 cells
[26] = system: TALE-VP64 VEGF4-1 (synthetic); conditions: VEGF-A ELISA, 293 cells
[27] = system: TALE-VP64 VEGF4-2 (synthetic); conditions: VEGF-A ELISA, 293 cells
[28] = system: TALE-VP64 VEGF4-3 (synthetic); conditions: VEGF-A ELISA, 293 cells
[29] = system: TALE-VP64 VEGF4-4 (synthetic); conditions: VEGF-A ELISA, 293 cells
[30] = system: TALE-VP64 VEGF4-5 (synthetic); conditions: VEGF-A ELISA, 293 cells
[31] = system: TALE-VP64 VEGF4-6 (synthetic); conditions: VEGF-A ELISA, 293 cells
[32] = system: TALE-VP64 VEGF2-1 (synthetic); conditions: VEGF-A ELISA, 293 cells
[33] = system: TALE-VP64 VEGF2-2 (synthetic); conditions: VEGF-A ELISA, 293 cells
[34] = system: TALE-VP64 VEGF2-3 (synthetic); conditions: VEGF-A ELISA, 293 cells
[35] = system: TALE-VP64 VEGF2-4 (synthetic); conditions: VEGF-A ELISA, 293 cells
[36] = system: TALE-VP64 VEGF2-5 (synthetic); conditions: VEGF-A ELISA, 293 cells
[37] = system: TALE-VP64 VEGF2-6 (synthetic); conditions: VEGF-A ELISA, 293 cells
[38] = system: TALE-VP64 Ntf3-5 (synthetic); conditions: NTF3 qRT-PCR, 293 cells
[39] = system: TALE-VP64 Ntf3-2 (synthetic); conditions: NTF3 qRT-PCR, 293 cells
[40] = system: TALE-VP64 VEGF7-2 (synthetic); conditions: VEGF-A ELISA, 293 cells
[41] = system: TALE-VP64 VEGF7-3 (synthetic); conditions: VEGF-A ELISA, 293 cells
[42] = system: TALE-VP64 VEGF7-4 (synthetic); conditions: VEGF-A ELISA, 293 cells
[43] = system: TALE-VP64 VEGF7-5 (synthetic); conditions: VEGF-A ELISA, 293 cells
[44] = system: TALE-VP64 VEGF7-6 (synthetic); conditions: VEGF-A ELISA, 293 cells
[45] = system: TALE-VP64 VEGF5-1 (synthetic); conditions: VEGF-A ELISA, 293 cells
[46] = system: TALE-VP64 VEGF5-2 (synthetic); conditions: VEGF-A ELISA, 293 cells
[47] = system: TALE-VP64 VEGF5-3 (synthetic); conditions: VEGF-A ELISA, 293 cells
[48] = system: TALE-VP64 VEGF5-4 (synthetic); conditions: VEGF-A ELISA, 293 cells
[49] = system: TALE-VP64 VEGF5-5 (synthetic); conditions: VEGF-A ELISA, 293 cells
[50] = system: TALE-VP64 VEGF5-6 (synthetic); conditions: VEGF-A ELISA, 293 cells
[51] = system: TALE-VP64 Ntf3-3 (synthetic); conditions: NTF3 qRT-PCR, 293 cells
[52] = system: TALE-VP64 Ntf3-1 (synthetic); conditions: NTF3 qRT-PCR, 293 cells; weakest about 1000-fold
[53] = system: TALE-VP64 VEGF1-1 (synthetic); conditions: VEGF-A ELISA, 293 cells; range 5.3-114 over 53 active TALEs
[54] = system: TALE-VP64 VEGF1-2 (synthetic); conditions: VEGF-A ELISA, 293 cells
[55] = system: TALE-VP64 VEGF1-3 (synthetic); conditions: VEGF-A ELISA, 293 cells
[56] = system: TALE-VP64 VEGF1-4 (synthetic); conditions: VEGF-A ELISA, 293 cells; site printed with S at position 6
[57] = system: TALE-VP64 VEGF1-5 (synthetic); conditions: VEGF-A ELISA, 293 cells
[58] = system: TALE-VP64 VEGF1-6 (synthetic); conditions: VEGF-A ELISA, 293 cells

TACCACCTCCTCCCCG (double strand) [VEGF3-1 site]
activity (fold activation) [1]: > 5.3

TACCACCTCCTCCCCGGC (double strand) [VEGF3-2 site]
activity (fold activation) [2]: > 5.3

TACCACCTCCTCCCCGGCCG (double strand) [VEGF3-3 site]
activity (fold activation) [3]: > 5.3

TACCACCTCCTCCCCGGCCGGC (double strand) [VEGF3-4 site]
activity (fold activation) [4]: > 5.3

TACCACCTCCTCCCCGGCCGGCGG (double strand) [VEGF3-5 site]
activity (fold activation) [5]: > 5.3

TACCACCTCCTCCCCGGCCGGCGGCG (double strand) [VEGF3-6 site]
activity (fold activation) [6]: > 5.3

TACGCCTCAGACCTGATC (double strand) [Ntf3-4 site]
activity (fold activation (approx)) [7]: > 1000

TCCACCCCGCCTCCGG (double strand) [VEGF9-1 site]
activity (fold activation) [8]: > 5.3

TCCACCCCGCCTCCGGGC (double strand) [VEGF9-2 site]
activity (fold activation) [9]: > 5.3

TCCACCCCGCCTCCGGGCGC (double strand) [VEGF9-3 site]
activity (fold activation) [10]: > 5.3

TCCACCCCGCCTCCGGGCGCGG (double strand) [VEGF9-4 site]
activity (fold activation) [11]: > 5.3

TCCACCCCGCCTCCGGGCGCGGGC (double strand) [VEGF9-5 site]
activity (fold activation) [12]: > 5.3

TCCACCCCGCCTCCGGGCGCGGGCTC (double strand) [VEGF9-6 site]
activity (fold activation) [13]: > 5.3

TCCACTGTCCGCCGCC (double strand) [VEGF8-1 site]
activity (fold activation) [14]: > 5.3

TCCACTGTCCGCCGCCGG (double strand) [VEGF8-2 site]
activity (fold activation) [15]: > 5.3

TCCACTGTCCGCCGCCGGCC (double strand) [VEGF8-3 site]
activity (fold activation) [16]: > 5.3

TCCACTGTCCGCCGCCGGCCGG (double strand) [VEGF8-4 site]
activity (fold activation) [17]: > 5.3

TCCACTGTCCGCCGCCGGCCGGGG (double strand) [VEGF8-5 site]
activity (fold activation) [18]: > 5.3

TCCACTGTCCGCCGCCGGCCGGGGAG (double strand) [VEGF8-6 site]
activity (fold activation) [19]: > 5.3

TCCCAAGGGGGAGGGC (double strand) [VEGF6-1 site]
activity (fold activation) [20]: > 5.3

TCCCAAGGGGGAGGGCTC (double strand) [VEGF6-2 site]
activity (fold activation) [21]: > 5.3

TCCCAAGGGGGAGGGCTCAC (double strand) [VEGF6-3 site]
activity (fold activation) [22]: > 5.3

TCCCAAGGGGGAGGGCTCACGC (double strand) [VEGF6-4 site]
activity (fold activation) [23]: > 5.3

TCCCAAGGGGGAGGGCTCACGCCG (double strand) [VEGF6-5 site]
activity (fold activation) [24]: > 5.3

TCCCAAGGGGGAGGGCTCACGCCGCG (double strand) [VEGF6-6 site]
activity (fold activation) [25]: > 5.3

TCCCCGGCCGGCGGCG (double strand) [VEGF4-1 site]
activity (fold activation) [26]: > 5.3

TCCCCGGCCGGCGGCGGA (double strand) [VEGF4-2 site]
activity (fold activation) [27]: > 5.3

TCCCCGGCCGGCGGCGGACA (double strand) [VEGF4-3 site]
activity (fold activation) [28]: > 5.3

TCCCCGGCCGGCGGCGGACAGT (double strand) [VEGF4-4 site]
activity (fold activation) [29]: > 5.3

TCCCCGGCCGGCGGCGGACAGTGG (double strand) [VEGF4-5 site]
activity (fold activation) [30]: > 5.3

TCCCCGGCCGGCGGCGGACAGTGGAC (double strand) [VEGF4-6 site]
activity (fold activation) [31]: > 5.3

TCCCGCAGCTGACCAG (double strand) [VEGF2-1 site]
activity (fold activation) [32]: > 5.3

TCCCGCAGCTGACCAGTC (double strand) [VEGF2-2 site]
activity (fold activation) [33]: > 5.3

TCCCGCAGCTGACCAGTCGC (double strand) [VEGF2-3 site]
activity (fold activation) [34]: > 5.3

TCCCGCAGCTGACCAGTCGCGC (double strand) [VEGF2-4 site]
activity (fold activation) [35]: > 5.3

TCCCGCAGCTGACCAGTCGCGCTG (double strand) [VEGF2-5 site]
activity (fold activation) [36]: > 5.3

TCCCGCAGCTGACCAGTCGCGCTGAC (double strand) [VEGF2-6 site]
activity (fold activation) [37]: > 5.3

TCCCTCAATCTGGGAAAG (double strand) [Ntf3-5 site]
activity (fold activation (approx)) [38]: > 1000

TCCGAACAGCTCCGCGCA (double strand) [Ntf3-2 site]
activity (fold activation (approx)) [39]: > 1000

TCCGTCAGCGCGACTGGT (double strand) [VEGF7-2 site]
activity (fold activation) [40]: > 5.3

TCCGTCAGCGCGACTGGTCA (double strand) [VEGF7-3 site]
activity (fold activation) [41]: > 5.3

TCCGTCAGCGCGACTGGTCAGC (double strand) [VEGF7-4 site]
activity (fold activation) [42]: > 5.3

TCCGTCAGCGCGACTGGTCAGCTG (double strand) [VEGF7-5 site]
activity (fold activation) [43]: > 5.3

TCCGTCAGCGCGACTGGTCAGCTGCG (double strand) [VEGF7-6 site]
activity (fold activation) [44]: > 5.3

TGGACGCGGCGGCGAG (double strand) [VEGF5-1 site]
activity (fold activation) [45]: > 5.3

TGGACGCGGCGGCGAGCC (double strand) [VEGF5-2 site]
activity (fold activation) [46]: > 5.3

TGGACGCGGCGGCGAGCCGC (double strand) [VEGF5-3 site]
activity (fold activation) [47]: > 5.3

TGGACGCGGCGGCGAGCCGCGG (double strand) [VEGF5-4 site]
activity (fold activation) [48]: > 5.3

TGGACGCGGCGGCGAGCCGCGGGC (double strand) [VEGF5-5 site]
activity (fold activation) [49]: > 5.3

TGGACGCGGCGGCGAGCCGCGGGCAG (double strand) [VEGF5-6 site]
activity (fold activation) [50]: > 5.3

TTCCCCTGCTGGGTAGTG (double strand) [Ntf3-3 site]
activity (fold activation (approx)) [51]: > 1000

TTCTGTTCACGGGACTCA (double strand) [Ntf3-1 site]
activity (fold activation (approx)) [52]: > 1000

TTGGGGGTGACCGCCG (double strand) [VEGF1-1 site]
activity (fold activation) [53]: > 5.3

TTGGGGGTGACCGCCGGA (double strand) [VEGF1-2 site]
activity (fold activation) [54]: > 5.3

TTGGGGGTGACCGCCGGAGC (double strand) [VEGF1-3 site]
activity (fold activation) [55]: > 5.3

TTGGGGGTGACCGCCGGAGCGC (double strand) [VEGF1-4 site]
activity (fold activation) [56]: > 5.3

TTGGGGGTGACCGCCGGAGCGCGG (double strand) [VEGF1-5 site]
activity (fold activation) [57]: > 5.3

TTGGGGGTGACCGCCGGAGCGCGGCG (double strand) [VEGF1-6 site]
activity (fold activation) [58]: > 5.3
